Data on two molecules can be found in patent publication US20170158753A1 (INTEGRATED BIOTHERAPEUTICS, published 2017).

For one assay, the target named is MARV GP[change] (Marburg virus, UniProt P35253).
Assay [1] concerns the target T1, EBOV GP[change] (Ebola virus, UniProt Q05320).
The target in assay [2] is T1, EBOV GP[change]. This is another data set of the same source.

B1: m5E4 (antibody, V domains shown)
VH: EVQLQESGGDLVKPGGSLKLSCAASGFTFSSYTMSWVRQTPERRLEWVATITSGGTYTYYPDSVKGRFTISRDNAKNTLYLQMTSLKSEDTAMYYCTREDGYYFSYWGQGTLVTVSA
VL: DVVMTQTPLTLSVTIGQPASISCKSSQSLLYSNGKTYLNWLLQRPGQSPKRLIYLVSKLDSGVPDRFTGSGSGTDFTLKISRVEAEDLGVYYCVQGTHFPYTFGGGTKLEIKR
Regarding B1, the dissociation constant (Kd) in the assay with MARV GP[change] amounted to 30 nM; with EBOV GP[change] [1] it was 12 nM.

B2: m2E4 (antibody, V domains shown)
VH: EVQLQESGPELVKPGASVKISCKASGYSFTGYYMNWVKQSPEKSLEWIGEINPSTGGTTYNQKFKAKATLTVDKSSSTAYMQLKSLTSEDSAVYYCVRYSHYYGSGSWYFDVWGTGTTVTVSS
VL: DIQMTQSPASLSASVGETVTITCRASENIYSNLAWYQQKQGKSPQLLVNAATNLADGVPSRFSGSGSGTQFSLKINSLQPEDFGSYYCQHFYVTPYTFGSGTKLEIKR
Turning to B2, in the assay with EBOV GP[change] [2], the response was half-maximal at 1.27 µg/mL (EC50).
